According to patent publication US10633455B2, “Method for treating and diagnosing disease using inhibitors of goodpasture antigen binding protein” (Fibrostatin S.L., priority 2011, dated 2020):

T1: GPBP (Homo sapiens, UniProt Q9Y5P4)
T1 sequence (Q9Y5P4 1-624): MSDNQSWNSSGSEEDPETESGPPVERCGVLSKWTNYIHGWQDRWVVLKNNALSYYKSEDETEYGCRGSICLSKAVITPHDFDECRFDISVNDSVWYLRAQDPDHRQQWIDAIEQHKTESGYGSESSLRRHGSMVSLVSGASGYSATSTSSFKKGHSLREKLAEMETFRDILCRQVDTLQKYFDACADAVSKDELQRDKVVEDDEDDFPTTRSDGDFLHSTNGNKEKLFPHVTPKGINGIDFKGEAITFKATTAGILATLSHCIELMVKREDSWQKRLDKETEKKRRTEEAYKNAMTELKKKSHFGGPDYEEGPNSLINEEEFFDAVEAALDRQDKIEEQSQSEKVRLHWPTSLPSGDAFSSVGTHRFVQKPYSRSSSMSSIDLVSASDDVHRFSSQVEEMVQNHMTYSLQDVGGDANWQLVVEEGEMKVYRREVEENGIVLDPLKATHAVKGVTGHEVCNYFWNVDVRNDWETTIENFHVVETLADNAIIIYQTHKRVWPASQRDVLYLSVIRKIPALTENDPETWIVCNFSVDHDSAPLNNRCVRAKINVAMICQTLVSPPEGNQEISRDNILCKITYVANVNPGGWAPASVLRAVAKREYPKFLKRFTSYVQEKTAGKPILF

B1: rcGPBP-1: Recombinant cGPBP-1 purified from culture media of a HEK 293 cell clone that constitutively secretes FLAG-GPBP-1 (protein)
chain: T1 sequence (Q9Y5P4 1-624)

Columns and labels:
doxorubicin-induced PF = experiment: Doxorubicin-induced pulmonary fibrosis in mice; type: in vivo, C57BL/6 male mice
Protocol: For induction of PF with doxorubicin (Example 3), eight to ten weeks-old C57BL/6 male mice were purchased from Harlan Ibérica (Barcelona, Spain). For intratracheal (i.t.) instillation of doxorubicin (Sigma), mice were anesthetized by intraperitoneal (i.p.) injection of ketamine (50 μg/g of body weight), atropine sulphate (0.2 μg/g) and diazepam (4 μg/g). The trachea was localized by cutaneous incision in the anterior face of the neck and immobilized with forceps. Then 75 μl of doxorubicin chlorhydrate (1 mg/ml) were injected i.t. with a 30 G needle. Skin was then sutured with 3/0 silk. Mice were fed ad libitum with a normal chow diet and bled from the retro-orbital plexus at different time points after doxorubicin i.t. instillation. […] Mice instilled i.t. with doxorubicin were daily injected i.p. with either with 0.027, 0.08, 0.25 or 1.225 mg/kg of Pinacidil or with 0.11, 0.34 or 0.95 mg/kg of Myricetin. Mice were sacrificed twelve days after doxorubicin administration for gene expression analysis and anatomopathological studies of the lungs.
In PF assays, mouse lungs were intrabronchially perfused with 4% phosphate buffered formalin, then incubated in this fixative during 24 hours and finally embedded in paraffin. Tissue sections of 5 μm were stained with HE or with Masson's trichrome following conventional methods. For immunohistochemistry, paraffin-embedded lungs were stained with anti-GPBP-pep1 antibodies (3), which was detected with anti-chicken-HPR and DAB substrate (Dako Diagnósticos, S.A., Barcelona Spain). Specimens were counterstained with hematoxylin.
In assays of experimental pulmonary fibrosis, the expression of GPBP and of collagens type I and type IV mRNAs in the lung was analyzed by real-time quantitative PCR (RT-qPCR). One μg of the isolated RNA was used for cDNA synthesis with a RT-PCR kit (Amersham Pharmacia Biotech, Piscataway, N.J.), according to the manufacturer instructions. RT-qPCR was performed on a MX-3000P Stratagene instrument (Agilent Technologies, Inc., Santa Clara, Calif.) using specific primers SYBR Green PCR Master Mix (Applied Biosystems, Life Technologies Corporation). Primers used were: for α1(I) collagen gene, 5′ primer 5′-[…]-3′ (SEQ ID NO: 12) and 3′ primer 5′-[…]-3′ (SEQ ID NO: 13); for GPBP gene, 5′ primer 5′-[…]-3′ (SEQ ID NO: 14) and 3′ primer 5′-[…]-3′(SEQ ID NO: 15); for 18S gene, 5′ primer 5′-[…]-3′ (SEQ ID NO: 16) and 3′ primer 5′-[…]-3′ (SEQ ID NO: 17). Results (in triplicate) were normalized to the ribosomal 18S subunit expression and measured in parallel in each sample. Data were expressed as mean fold change relative to control samples.

GPBP = target: T1, GPBP; experiment: Inhibition of autophosphorylating activity of GPBP in vitro; type: biochemical; settings: Pretswick Chemical Library selection (not shown)
A549 cells = experiment: mRNA expression profile / KEGG pathway analysis of A549 cells cultured with rcGPBP-1; type: cell-based, human; settings: 200 ng/mL
Protocol: Human A549 cells were cultured with or without 200 ng/mL of rcGPBP-1 for 3 hours. Then cells were lysed and total RNA was extracted with RNeasy™ Protect mini kit (Qiagen, Valencia, Calif.) according to manufacturer's recommendations. RNA was quantified by spectrometry with a NanoDrop™ ND1000 (NanoDrop Technologies, Wilminton, Del.) and quality confirmed by RNA 6000 Nano Bioanalyzer (Agilent Technologies, Palo Alto, Calif.) assay. Briefly, 150 ng of total RNA were used to produce Cyanine 3-CTP-labeled cRNA using the Low Input Quick™ Amp Labelling Kit One-Color (Agilent) according to the manufacturer's instructions. Following ‘One-Color Microarray-Based Gene Expression Analysis’ protocol Version 6.0 (Agilent), 1600 ng of labelled cRNA were hybridized with the Whole Human Genome Oligo Microarray Kit (Agilent) containing 41000+ unique human genes and transcripts. Arrays were scanned in an Agilent Microarray Scanner according to the manufacturer's instructions and data extracted using Agilent Feature Extraction Software 10.7.1 following the Agilent protocol GE1_107_Sep09, grid template 014850_D_F_20100430 and the QC Metric Set GE1_QCMT_Sep09. Analysis was performed in the Genomics Core Service of the Centro de Investigación Príncipe Felipe (Valencia, Spain) using an Agilent Microarray Scanner (Agilent Technologies, Palo Alto, Calif.).
Raw data files were background corrected using supplier's methodology and intensity signal standardized across arrays via quantile normalization algorithm. Differential gene expression assessment of all comparisons was carried out using limma moderated t-statistics. Conventional adjustment for multiple testing proposed by Benjamini Hochberg (5) was used to derive adjusted P-values. Also, for each of the comparisons performed in the study, gene set analysis was carried out using logistic regression models, and correcting for multiple testing as before (5). All analyses where carried out using Babelomics™ (6) web suite at the Bioinformatics Department of Centro de Investigación Príncipe Felipe. Array data have been deposited in GEO (accession number GSE32181).

[1] = A549 + rcGPBP-1 vs A549, 3 hours, P. adjusted 0.1576

Row | Molecule | expression of pulmonary α1(I) collagen mRNA (doxorubicin-induced PF; daily dose of 0.08 mg/kg i.p., day 12, RT-qPCR (FIG. 11A)) | severity of doxorubicin-induced pulmonary fibrosis (doxorubicin-induced PF; daily dose of 0.08 mg/kg i.p., days 0-12, histology (FIG. 10)) | therapeutic effect (α1(I) collagen mRNA) (doxorubicin-induced PF; higher doses, 0.25 or 1.225 mg/kg/day (FIG. 11A)) | autophosphorylating activity of GPBP (GPBP) | doxorubicin-induced fibrosis (α1(I) collagen mRNA) (doxorubicin-induced PF; all doses tested (0.11, 0.34 or 0.95 mg/kg daily i.p.), day 12 (FIG. 11B)) | Log Odds Ratio, KEGG pathway hsa05322 SLE (A549 cells; A549 + rcGPBP-1 vs A549, 3 hours, P. adjusted 0.0003) | Log Odds Ratio, KEGG pathway hsa00380 Tryptophan metabolism (A549 cells; [1]) | Log Odds Ratio, KEGG pathway hsa04120 Ubiquitin mediated proteolysis (A549 cells; [1]) | Log Odds Ratio, KEGG pathway hsa04210 Apoptosis (A549 cells; [1]) | Log Odds Ratio, KEGG pathway hsa05200 Pathways in cancer (A549 cells; [1]) | Log Odds Ratio, KEGG pathway hsa05211 Renal cell carcinoma (A549 cells; [1]) | Log Odds Ratio, KEGG pathway hsa05222 Small cell lung cancer (A549 cells; [1]) | Log Odds Ratio, KEGG pathway hsa04510 Focal adhesion (A549 cells; A549 + rcGPBP-1 vs A549, 3 hours, P. adjusted 0.1579) | Log Odds Ratio, KEGG pathway hsa04914 Progesterone-mediated oocyte maturation (A549 cells; A549 + rcGPBP-1 vs A549, 3 hours, P. adjusted 0.1771) | Log Odds Ratio, KEGG pathway hsa05218 Melanoma (A549 cells; A549 + rcGPBP-1 vs A549, 3 hours, P. adjusted 0.3348) | changes in the expression of individual genes (A549 cells; A549 cells, microarray)
1 | CC(N/C(=N\C#N)Nc1ccncc1)C(C)(C)C (centres unmarked) [pinacidil] | significant reduced expression | sharply reduced | lost | inhibit the autophosphorylating activity of GPBP in vitro |  |  |  |  |  |  |  |  |  |  |  | 
2 | O=c1c(O)c(-c2cc(O)c(O)c(O)c2)oc2cc(O)cc(O)c12 [myricetin] |  |  |  | inhibit the autophosphorylating activity of GPBP in vitro | efficient reduction |  |  |  |  |  |  |  |  |  |  | 
3 | B1 |  |  |  |  |  | 0.1444 | −0.1522 | −0.1130 | −0.1307 | −0.0843 | −0.1355 | −0.1253 | −0.0969 | −0.1223 | −0.1196 | No statistically significant changes
